Test results from article PMC7719796, “Structural Insights on Tiny Peptide Nucleic Acid (PNA) Analogues of miRNA-34a: An in silico and Experimental Integrated Approach” (Frontiers in Chemistry, 2020).

Tested on: Kelly neuroblastoma cells
Experiment: PNA cellular uptake assay (fluorescence of cell lysate)
Type: cell-based, Human
Settings: 0.1 μM in Opti-MEM, no transfecting agent, 24 h incubation (text; method: 6 h at 37°C, then 48 h), fluorescence of cell lysate and media 485/535 nm, 3 biological repeats and 4 technical repeats
Source text: Cellular uptake of the described tiny PNA sequence was studied in vitro on Human Kelly neuroblastoma cell line, without the use of any transfection agents, and compared to previously reported results from our group (Piacenti et al., [2019]). In particular, the PNA oligomers were provided with short peptide carriers at both termini consisting of a trilysines segment at the C-terminus and one lysine at the N-terminus (FITC-PNA2) or Cys-Lys dipeptide at the N-terminus (FITC-PNA3) (Table 1), that was previously reported by Fabani et al. ([2010]) to promote cellular uptake for PNA single strands. Kelly cells were incubated for 24 h with FITC-PNA2 or FITC-PNA3 sequences individually, at minimal 0.1 μM concentration in optiMEM, without the use of any transfecting agent and using a protocol for miRNA mimics delivery, which was previously optimized (Curtin, [2018]). Both peptide carriers were able to provide internalization of PNA sequences albeit to a different extent (Figure 9A); uptake was slightly higher than 3% for FITC-PNA2 and almost 5% for FITC-PNA3.
Kelly cells were seeded in 6-well plates in duplicates at 0.5 × 10^6 density. […] The fluorescence of the cell lysate and of the media was read in a dual beam plate reader, at 485/535 nm.

| Substance | Cellular uptake (internalization) |
| --- | --- |
| FITC- Ahx -CK - tggcagtg—KKK- NH2 [FITC-PNA3, PNA1 with Cys-Lys at N-terminus and KKK at C-terminus, FITC-Ahx; reported in previous work, used for comparison] | ~5% |
| FITC- Ahx -K- tggcagtg—KKK-NH2 [FITC-PNA2, PNA1 with K at N-terminus and KKK at C-terminus, Ahx linker and FITC fluorescent tag] | higher than 3% |
